Experiments:
[1] = Cameleon intravesicular Ca^2+ assay, control vesicles; format: biochemical, S cerevisiae; details: ionomycin 20 μM
Experimental: In complementary measurements, vesicular Ca^2+ was monitored directly by coexpressing ORAI1 with the Ca^2+ sensor D3 cpV or D4 cpV53 fused to the α-mating factor secretion signal to target the sensor to the vesicles. Vesicles that had incorporated ORAI1 were isolated from sec6-4 yeast incubated at the restrictive temperature and were diluted into assay buffer.
S cerevisiae strain NY17 featuring the temperature-sensitive sec6-4 mutation was used for protein expression and purification of secretory vesicles as described (Nakamoto, R. K., et al., J Biol Chem 266, 7940-7949 (1991); Coury, L. A., et al., Methods Enzymol 306, 169-186 (1999)). Cells were grown to midlog phase at 25° C. in uracil-deficient synthetic complete medium containing glucose, which was subsequently exchanged for galactose to induce transgene expression over a period of 8 hours. The temperature was then switched to 37° C. for 3 hours to force intracellular accumulation of secretory vesicles. […] Myc-tagged ORAI1 was detected in Western blots using the murine anti-Myc monoclonal antibody 9E10.
Changes in intravesicular [Ca^2+] were monitored with the modified Ca^2+ sensors cameleon D3 cpV and D4 cpV53. […] Emission spectra were recorded from 450-560 nm with excitation set at 410 nm, with a 5-8 nm slitwidth for both excitation and emission, and corrected by subtracting the spectrum obtained with buffer alone. […]

GST-ORAI1 (65-87) = biological target: T1, GST-ORAI1 (65-87) (Homo sapiens, UniProt Q96D31); assay: GST pull down assay with GST-ORAI1 (65-87); format: binding
T1 construct: A plasmid encoding ORAI1 (65-87) as a GST fusion protein; made in house; host or cells: E. coli BL21 (DE3), pGEX-2T
Excerpt: A conserved region of ORAI1 immediately preceding, and extending into, ORAI1 transmembrane segment 1 is implicated in channel opening (Feske et al., Nature 441: 179-185 (2006); Li et al., J. Biol. Chem. 282: 29448-29456 (2007); Park et al., Cell 136: 876-890 (2009); Derler et al., J. Biol. Chem. 284: 15903-15915 (2009)), and GFP-ORAI1 (48-91) expressed in mammalian cells co-immunoprecipitates with STIM1 (342-448) (Park et al., Cell 136: 876-890 (2009)). Here again, the protein-protein interaction is direct, because purified recombinant STIM1CT bound to purified GST-ORAI1 (65-87) (FIG. 2C).
The cDNAs encoding mouse STIM 1^CT fragments (residues 233-685, 233-666, 233-600, 233-531, 233-498, or 233-463) were amplified via PCR and cloned into the pProEX HTb vector (Invitrogen) between the BamHI and XhoI sites for expression as His-tagged proteins. For production of the C-terminal cytoplasmic tail of ORAI 1 as a GST fusion protein, coupled to GST through the flexible linker—GSGSRGSPEF—(SEQ ID NO: 1), cDNA encoding ORAI1 residues 259-301 was amplified using PCR and cloned into the pGEX-4T-1 vector (GE Healthcare) between the BamHI and NotI sites. A plasmid encoding ORAI1 (65-87) as a GST fusion protein with the linker—GSGGGS—(SEQ ID NO: 9) was produced by inserting the corresponding Cdna into the pGEX-2T vector (GE Healthcare). […]

T1 sequence (Q96D31 65-87 limits assumed): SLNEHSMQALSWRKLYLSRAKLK

Molecule | Ca^2+ release from control vesicles (cameleon) [1] | binding to purified GST-ORAI1 (65-87) (GST-ORAI1 (65-87)) | strength of interaction compared with STIM1^CT-ORAI1^CT interaction (GST-ORAI1 (65-87))
C[C@H](CCC(=O)O)C[C@H](C)C[C@H](C)C(=O)/C=C(\O)[C@H](C)C[C@H](C)C/C=C/[C@@H](C)[C@@H](O)[C@@H](C)[C@@H](O)C[C@@H]1CC[C@@](C)([C@H]2CC[C@@](C)([C@@H](C)O)O2)O1 [ionomycin, reference compound] | effective in releasing Ca^2+ | – | –
STIM1^CT: cytoplasmic region of STIM1, mouse residues 233-685, His-tagged recombinant protein expressed in E coli | – | bound | weaker

Reference: patent US20120264231A1, “ASSAY FOR ORAI CALCIUM CHANNEL REGULATORS” (IMMUNE DISEASE INSTITUTE, INC., priority 2009, published 2012)
